B1: 3.87.1.1 (antibody, V domains shown)
VH: QVQLVESGGGVVQPGRSLRLSCAASGFTFSSYGMHWVRQAPGKGLEWVAVIWYDRSNKYYADSVKGRFTISRDNSKNTLYLQMNSLRAEDTAVYYCAGGRSRGAFDYWGQGTLVTVSS
VL: DIQMTQSPSSVSASVGDRVTITCRASQGISSWLAWYQQKPGKAPKLLIFAASSLQSGVPSRFSGSGSGTDFTLTISSLQPEDFATYYCQRTNSFPRTFGQGTKVEIK
B2: 3.818.4 (antibody, V domains shown)
VH: EVQLVESGGGLVQPGGSLRLSCAASGFTFSSYSMNWVRQAPGKGLEWVSYISGSSTTMYYADSVKGRFTISRDNAKNSLYLQMNSLRDEDTAVYYCARLRHFDWSYAFDIWGQGTMVTVSS
VL: DIQMTQSPSSVSTSVGDRVTITCRASQGISSWLAWYQQRPGKAPKLLIYAASSLQSGVPSRFSGSGSGTDFTLTISSLQPEDFATYFCQQATSFPFTFGPGTKVGIK
B3: 3.457.3.1 (antibody, V domains shown)
VH: QVQLVESGGGVVQPGRSLRLSCAASGFTFSSYGMHWVRQAPGKGLEWVAVIWYDRSNKYYADSVKGRFTISRDNSKNTLYLQMNSLRAEDTAVYYCAGGRSRGAFDFWGQGTLVTVSS
VL: DIQMTQSPSSVSASVGDRVTITCRASQGISSWLAWYQQKAGKAPKLLIYSASSLQSGVPSRFSGSGSGTDFTLTISSLQPEDFATYYCQRTNSFPRTFGQGTKVEIK
B4: 3.472.1.1 (antibody, V domains shown)
VH: QVQLVESGGGVVQPGRSLRLSCAASGFTFSSYGMHWVRQAPGKGLEWVAVIWYDRSNKYYVDSVKGRFTISRDNSKNTLYLQMNSLRAEDTAVYYCAGGRSRGAFDYWGQGTLVTVSS
VL: DIQMTQSPSSVSASVGDRVTITCRASQDISSWLAWYQQKPGKAPKLLIFAASSLQSGVPSRFSGSGSGTDFTLTISSLQPEDFATYYCQRTSSFPRTFGQGTKVEIK
B5: 2.1954.2 (antibody, V domains shown)
VH: QVQLVESGGGVVQPGRSLRLSCAASGFSFSIYGMHWVRQAPGKGLEWVAVIWFDGSNKYYADSVKGRFTISRDNSKNTLYLQMNSLRAEDTALYYCARDKASYYGSGMDYWGQGTLVTVSS
VL: EIVLTQSPGTLSLSPGERATLSCRASQSVSSTYLAWYQHRPGQAPRLLISGASRRATGIPDRFSGSGSGTDFTLTISRLEPEDFAVYYCQHYGSSFTWTFGQGTKVEIK
B6: 2.2002.3 (antibody, V domains shown)
VH: QVQLVESGGGVVQPGRSLRVSCAASGFMFRSYGMHWVRQAPGKGLEWVAVIWHDGSNKNHGDSVKGRFTISRDNSKNTLYLQMNSLRAEDTAVYYCARGRLAGGGPYYYYYYGMDVWGQGTTVTVSS
VL: not shown
B7: 3.818.4 (antibody, V domains shown)
VH: EVQLVESGGGLVQPGGSLRLSCAASGFTFSSYSMNWVRQAPGKGLEWVSYISGSSTTMYYADSVKGRFTISRDNAKNSLYLQMNSLRDEDTAVYYCARLRHFDWSYAFDIWGQGTMVTVSS
VL: DIQMTQSPSSVSTSVGDRVTITCRASQGISSWLAWYQQRPGKAPKLLIYAASSLQSGVPSRFSGSGSGTDFTLTISSLQPEDFATYFCQQATSFPFTFGPGTKVGIK
B8: 3.87.1.1 (antibody, V domains shown)
VH: QVQLVESGGGVVQPGRSLRLSCAASGFTFSSYGMHWVRQAPGKGLEWVAVIWYDRSNKYYADSVKGRFTISRDNSKNTLYLQMNSLRAEDTAVYYCAGGRSRGAFDYWGQGTLVTVSS
VL: DIQMTQSPSSVSASVGDRVTITCRASQGISSWLAWYQQKPGKAPKLLIFAASSLQSGVPSRFSGSGSGTDFTLTISSLQPEDFATYYCQRTNSFPRTFGQGTKVEIK
B9: 3.625.1.7 (antibody, V domains shown)
VH: QVQLVESGGGVVQPGRSLRLSCAASGFTFSSYGMHWVRQAPGKGLEWVAVIWYDRSNKYYADSVKGRFTISRDNSKNTLYLQMDSLRAEDTAVYYCAGGRSRGAFDYWGQGTLVTVSS
VL: DIQMTQSPSSVSASVGDRVTITCRASQGISSWLAWYQQKPGKAPKLLIYAASSLQSGVPSRFSGSGSGTDFTLTISSLQPEDFATYYCQRTNSFPRTFGQGTKVEIK
B10: 3.23.3 (antibody, V domains shown)
VH: QVQLVESGGGVVQPGRSLRLSCAASGFTFSRYGMHWVRQAPGKGLEWVAVIWYDGRNKYYVDSVKGRFTISRDNSKNTLYLQMNSLRAEDTAVYYCVGVGITVTGAFDYWGQGTLVTVSS
VL: EIVMTQSPATLSVSPGERATLSCRASQSVRSNLAWYQQKPGQAPRLLIYGASTRVTDIPTRFSGSGSGTEFTLSISSLQSEDFAVYYCQQYNNWPRTFGQGTKVEIK
B11: 4.16.2 (antibody, V domains shown)
VH: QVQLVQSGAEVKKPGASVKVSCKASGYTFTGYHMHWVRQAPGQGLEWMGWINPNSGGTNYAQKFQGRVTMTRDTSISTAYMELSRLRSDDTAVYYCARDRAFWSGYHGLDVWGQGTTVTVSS
VL: DIQMTQSPSSLSASVGDRVTITCRASQVIANYLAWYQQKPGKVPKLLIYAASTLQSGVPSRFSGSGSGTDFTLTISSLQPEDVATYYCHTYKSAPWTFGQGTKVEIK
B12: 3.457.3.1 (antibody, V domains shown)
VH: QVQLVESGGGVVQPGRSLRLSCAASGFTFSSYGMHWVRQAPGKGLEWVAVIWYDRSNKYYADSVKGRFTISRDNSKNTLYLQMNSLRAEDTAVYYCAGGRSRGAFDFWGQGTLVTVSS
VL: DIQMTQSPSSVSASVGDRVTITCRASQGISSWLAWYQQKAGKAPKLLIYSASSLQSGVPSRFSGSGSGTDFTLTISSLQPEDFATYYCQRTNSFPRTFGQGTKVEIK
B13: 3.805.1.3 (antibody, V domains shown)
VH: QVQLVESGGGVVQPGRSLRLSCAASGFTFSSYGMHWVRQAPGKGLEWVAVIWYDRSNKYYADSVKGRFTISRDNSKNTLYLQMNSLRAEDTAVYYCAGGRSRGAFDYWGQGTLVTVSS
VL: DIQMTQSPSSVSASVGDRVTITCRASQGISSWLAWYQQKPGKAPNLLIYAASSLQSGVPSRFSGSGSGTDFTLTISSLQPEDFATYYCQRTNNFPRTFGQGTKVEIK
B14: 3.472.1.1 (antibody, V domains shown)
VH: QVQLVESGGGVVQPGRSLRLSCAASGFTFSSYGMHWVRQAPGKGLEWVAVIWYDRSNKYYVDSVKGRFTISRDNSKNTLYLQMNSLRAEDTAVYYCAGGRSRGAFDYWGQGTLVTVSS
VL: DIQMTQSPSSVSASVGDRVTITCRASQDISSWLAWYQQKPGKAPKLLIFAASSLQSGVPSRFSGSGSGTDFTLTISSLQPEDFATYYCQRTSSFPRTFGQGTKVEIK
B15: 3.772.2 (antibody, V domains shown)
VH: QVQLVESGGGVVQPGRSLRLSCAASGFTFSSYGMHWVRQAPGKGLEWVAVIWYDRSNKYYADSVKGRFTISRDNSKNTLYLQMNSLRAEDTAVYYCAGGRSRGAFDFWGQGTLVTVSS
VL: DIQMTQSPSSVSASVGDRVTITCRASQDISSWLAWYQQKAGKAPKLLIYAASSLQSGVPSRFSGSGSGTDFTLTISSLQPEDFATYYCQRTNSFPRTFGQGTKVEIK
B16: 5.1.1.1 (antibody, V domains shown)
VH: QVQLVQSGAEVKKPGASVKVSCKASGYTFTSYDINWVRQATGQGLEWMGWMNPNSGNTGYAQQFQGRVTMTRNTSITTAYMELSSLRSEDTAVYYCAREEYSSSLFDSWGQGTLVTVSS
VL: DIQMTQSPSSLSASVGDRVTITCRASQGIRNNLGWFQQKPGKAPKRLIYAASSLQSGVPSRFSGSGSGTKFTLTISSLQPEDFATYFCLQHNRYPLTFGGGTKVEIK
B17: 2.1576.1.2 (antibody, V domains shown)
VH: EVQLVESGGGLVQPGGSLRLSCAASGFTFSSYWMSWVRQAPGKGLEWVANIKQDGSEKYYVDSVKGRFTISRDNAKNSLYLQMNSLRAEDTAVYYCARWGVFGSGSYYIPFDYWGQGTLVTVSS
VL: DIQMTQSPSSLSASVGDRVTITCRASQGIRNYLAWFQQKPGKAPKSLIYAASSLQSGVPSTFSGSGSGTHFTLTISSLQPEDFASYFCQQYEIYPLTFGGGTKVEIK
B18: 2.1954.2 (antibody, V domains shown)
VH: QVQLVESGGGVVQPGRSLRLSCAASGFSFSIYGMHWVRQAPGKGLEWVAVIWFDGSNKYYADSVKGRFTISRDNSKNTLYLQMNSLRAEDTALYYCARDKASYYGSGMDYWGQGTLVTVSS
VL: EIVLTQSPGTLSLSPGERATLSCRASQSVSSTYLAWYQHRPGQAPRLLISGASRRATGIPDRFSGSGSGTDFTLTISRLEPEDFAVYYCQHYGSSFTWTFGQGTKVEIK
B19: 5.9.3 (antibody, V domains shown)
VH: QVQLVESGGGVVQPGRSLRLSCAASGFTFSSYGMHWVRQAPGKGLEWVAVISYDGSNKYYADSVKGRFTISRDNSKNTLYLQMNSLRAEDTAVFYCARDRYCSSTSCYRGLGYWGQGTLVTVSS
VL: DIQMTQSPSSLSASVGDRVSITCRASQGIRNDLGWYQQKPGKAPTRLIYAASSLQSGVPSRFSGSGSGTEFTLTISSLQPEDFASYYCLQHNSFPWTFGQGTKVEIK
B20: 3.23.2 (antibody, V domains shown)
VH: EVQLVESGGGLVQPGGSLRLSCAASGFTFSNFWMSWVRQAPGKGLEWVANIKHGGSEKYYVDSVKGRFTISRDNAKNSLYLQMNRLRAEDTAVYYCARDPMYYFDYWGQGTLVTVSS
VL: DIQMTQSPSSLSASVGDRVTITCRASQDIRNDLDWYQQKPGKAPKRLIYAASSLQSGVPSRFSGSGSGTEFTLTISSLQPEDFATYYCLQHNGYPRSFGQGTKLEIK
B21: 2.2002.3 (antibody, V domains shown)
VH: QVQLVESGGGVVQPGRSLRVSCAASGFMFRSYGMHWVRQAPGKGLEWVAVIWHDGSNKNHGDSVKGRFTISRDNSKNTLYLQMNSLRAEDTAVYYCARGRLAGGGPYYYYYYGMDVWGQGTTVTVSS
VL: not shown

The target in the first experiment is PDGFR-alpha on MG-63 cells (human, UniProt P16234 24-1089). The experiment is described as follows: cell-based or functional assay.
Sequence of PDGFR-alpha on MG-63 cells (P16234 24-1089): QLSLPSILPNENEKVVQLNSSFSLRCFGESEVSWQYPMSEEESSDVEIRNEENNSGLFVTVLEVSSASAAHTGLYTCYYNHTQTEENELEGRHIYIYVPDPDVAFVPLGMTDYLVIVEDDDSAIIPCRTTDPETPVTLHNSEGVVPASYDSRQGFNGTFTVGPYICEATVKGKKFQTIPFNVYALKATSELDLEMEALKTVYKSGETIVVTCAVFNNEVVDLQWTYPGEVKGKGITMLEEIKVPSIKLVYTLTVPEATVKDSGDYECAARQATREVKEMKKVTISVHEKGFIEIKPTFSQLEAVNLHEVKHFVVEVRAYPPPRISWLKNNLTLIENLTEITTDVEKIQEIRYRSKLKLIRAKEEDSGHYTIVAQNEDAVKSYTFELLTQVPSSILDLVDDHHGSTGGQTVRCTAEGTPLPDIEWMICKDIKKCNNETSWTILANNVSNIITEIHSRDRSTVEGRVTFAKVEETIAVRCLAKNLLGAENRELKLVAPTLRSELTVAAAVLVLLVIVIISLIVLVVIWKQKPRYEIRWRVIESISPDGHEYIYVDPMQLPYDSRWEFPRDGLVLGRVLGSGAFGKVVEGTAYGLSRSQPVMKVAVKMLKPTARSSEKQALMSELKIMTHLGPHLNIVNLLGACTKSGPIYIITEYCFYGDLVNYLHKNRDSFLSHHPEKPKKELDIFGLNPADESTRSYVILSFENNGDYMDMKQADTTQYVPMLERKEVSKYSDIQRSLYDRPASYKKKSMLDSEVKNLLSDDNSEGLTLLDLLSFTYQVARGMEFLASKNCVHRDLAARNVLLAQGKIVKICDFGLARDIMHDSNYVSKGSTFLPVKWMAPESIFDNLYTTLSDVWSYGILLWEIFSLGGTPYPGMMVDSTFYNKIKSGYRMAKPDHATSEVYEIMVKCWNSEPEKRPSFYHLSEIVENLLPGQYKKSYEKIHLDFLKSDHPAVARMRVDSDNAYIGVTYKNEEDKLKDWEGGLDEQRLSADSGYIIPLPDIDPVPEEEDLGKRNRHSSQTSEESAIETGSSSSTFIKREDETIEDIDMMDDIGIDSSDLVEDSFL
On to B1, for which the “Average pTyr Inhibition” value is greater than 100%.
Same read-out and setting: the result for B2 reads greater than 100%; that for B3, greater than 100%; that for B4, 95%.
On the same count and under the same terms, the result for B5 reads greater than 100%.
In the case of B6, the “Average pTyr Inhibition” value was greater than 100%.

In another experiment the target is PDGFR-alpha on human osteosarcoma MG-63 cells (human, UniProt P16234 24-1089). The experiment is described as follows: cell-based or functional assay.
Sequence of PDGFR-alpha on human osteosarcoma MG-63 cells (P16234 24-1089): as above
For the molecule B7, the “Proliferation Assay: IC50 ng/ml (1-6-06)” value was 4600 ng/mL and the “pTyr Assay: % Inhibition @ 2 µg/ml” value stood at 92%.
Take B8: the “Proliferation Assay: IC50 ng/ml (1-6-06)” value worked out at 6240 ng/mL and the “pTyr Assay: % Inhibition @ 2 µg/ml” value was found to be 69%.
In the same order, the values of B9 are 3820 ng/mL and -3%.
In the same order, the values of B10 are 61.9 ng/mL and 84%.
Turning to B11, the “Proliferation Assay: IC50 ng/ml (1-6-06)” value is greater than 10000 ng/mL and the “pTyr Assay: % Inhibition @ 2 µg/ml” value worked out at 74%.
Take B12: the “pTyr Assay: % Inhibition @ 2 µg/ml” value was 85%.
In the case of B13, the “Proliferation Assay: IC50 ng/ml (1-6-06)” value was 1020 ng/mL and the “pTyr Assay: % Inhibition @ 2 µg/ml” value turned out to be 58%.
With B14, the “pTyr Assay: % Inhibition @ 2 µg/ml” value came to 61%.
With B15, the “Proliferation Assay: IC50 ng/ml (1-6-06)” value came to 168 ng/mL and the “pTyr Assay: % Inhibition @ 2 µg/ml” value amounted to 56%.
For B16, in that order: greater than 10000 ng/mL and 77%.
In the same order, the values of B17 are greater than 10000 ng/mL and 65%.
B18: the “pTyr Assay: % Inhibition @ 2 µg/ml” value was -3%.
B19: the “Proliferation Assay: IC50 ng/ml (1-6-06)” value was found to be 2.2 ng/mL and the “pTyr Assay: % Inhibition @ 2 µg/ml” value was 31%.
For the molecule B20, the “Proliferation Assay: IC50 ng/ml (1-6-06)” value is 150 ng/mL and the “pTyr Assay: % Inhibition @ 2 µg/ml” value turned out to be 26%.
Turning to B21, the “pTyr Assay: % Inhibition @ 2 µg/ml” value is -9%.

These data come from patent US20090324601A1 (published 2009).
